Measured values as given in the supplement of paper PMC10567573.

B1: MLL5 (parent)
chain: HDDGYMICCDKCSVWQHIDCMGID
B2: C19orf51 (parent)
chain: FAPQTGARPSETFARFCKSQESAL

Variants of: B1
Assay: protein stability index of a GFP-peptide fusion (GPS, HEK-293T) (PSI 1-6); higher = more stable
Details: c terminus: a fixed tail appended
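Also: lentivirally expressed fusions sorted by FACS into six bins by GFP to DsRed ratio, PSI derived from sequencing read proportions per bin multiplied by bin number.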

Variant | protein stability index
HDDGYMICCDKCGVWQHIDCMGID | 3.48
HDDGYMICCDKCPVWQHIDCMGID | 2.7
HDDGYMICCDKCTVWQHIDCMGID | 2.72
HDDGYMICCDKCWVWQHIDCMGID | 2.37
HDDGYMICCDKCHVWQHIDCMGID | 2.09
HDDGYMICCDKCDVWQHIDCMGID | 2.18
HDDGYMICCDKCFVWQHIDCMGID | 1.8
HDDGYYICCDKCSVWQHIDCMGID | 2.14
HDDGYDICCDKCSVWQHIDCMGID | 2.96
HDDGYMICCDKYSVWQHIDCMGID | 2.91
HDDGYMICCDKQSVWQHIDCMGID | 2.46
HDDGYMICCDKMSVWQHIDCMGID | 2.05
HDDGYMICCDKVSVWQHIDCMGID | 1.93
HDDGYMICCDKGSVWQHIDCMGID | 2.67
RDDGYMICCDKCSVWQHIDCMGID | 2.29
QDDGYMICCDKCSVWQHIDCMGID | 2.24
HRDGYMICCDKCSVWQHIDCMGID | 2.02
HGDGYMICCDKCSVWQHIDCMGID | 2.05
HVDGYMICCDKCSVWQHIDCMGID | 2.02
HHDGYMICCDKCSVWQHIDCMGID | 2.87
HNDGYMICCDKCSVWQHIDCMGID | 1.71
HDDGYMICCDKCSVPQHIDCMGID | 3.6
HDDGYMICCDKCSVAQHIDCMGID | 3.38

Variant | protein stability index
HDDGYMICCDKCSVNQHIDCMGID | 3.79
HDDGYMICCDKCSVGQHIDCMGID | 4.18
HDDGYMICCDKCSVKQHIDCMGID | 3.61
HDDGYMICCDKCSVWQHIDCMGFD | 2.1
HDDGYMICCDKCSVWQHIDLMGID | 1.86
HDDGYMICCDKCSVWQHIDGMGID | 2.19
HDDGYMICCDKCSVWQHIDYMGID | 1.68
HDDGYMICCDKCSVWQHIDAMGID | 2.5
HDDGKMICCDKCSVWQHIDCMGID | 3.53
HDDGEMICCDKCSVWQHIDCMGID | 3.39
HDDGLMICCDKCSVWQHIDCMGID | 2.78
HDDGDMICCDKCSVWQHIDCMGID | 3.14
HDDGYMICCDKCSVWQHIDCRGID | 2.85
HDDGYMICCDKCSVWQHIDCQGID | 2.91
HDDGYMRCCDKCSVWQHIDCMGID | 2.45
HDDGYMDCCDKCSVWQHIDCMGID | 3.42
HDDGYMQCCDKCSVWQHIDCMGID | 3.51
HDDGYMWCCDKCSVWQHIDCMGID | 3.09
HDDGYMGCCDKCSVWQHIDCMGID | 3.82
HDDGYMLCCDKCSVWQHIDCMGID | 2.06
HDDGYMICCFKCSVWQHIDCMGID | 2.44
HDDGYMICCDKCSVWQHIQCMGID | 2.62
HDDGYMICCDKCSVWQHIPCMGID | 2.33

Variant | protein stability index
HDDGYMICCDKCSVWQHILCMGID | 2.14
HDDGYMICCDKCSVWQHIVCMGID | 3.42
HDDGYMICCDKCSVWQHISCMGID | 1.78
HDDGYMICCDKCSVWQHIDCMGIF | 1.89
HDDGYMICCDKCSVWQHIDCMGIK | 2.13
HDDGYMICCDKCSVWQHIDCMGIT | 1.94
HDDGYMICCDKCSVWQHIDCMGIR | 1.93
HDDGYMICMDKCSVWQHIDCMGID | 1.99
HDDGYMICKDKCSVWQHIDCMGID | 2.85
HDDGYMICGDKCSVWQHIDCMGID | 3.81
HDDGYMICTDKCSVWQHIDCMGID | 3.75
HDDGYMICFDKCSVWQHIDCMGID | 2.43
HDDGYMICNDKCSVWQHIDCMGID | 2.77
HDDGYMICYDKCSVWQHIDCMGID | 1.47
HDDGYMICLDKCSVWQHIDCMGID | 2.12
HDDGYMICWDKCSVWQHIDCMGID | 2.16
HDDGYMICCDKCSVWLHIDCMGID | 2.75
HDDGYMICCDKCSVWDHIDCMGID | 2.08
HDDGYMICCDKCSVWNHIDCMGID | 2.42
HDDGYMICCDKCSVWYHIDCMGID | 1.07
HDDGYMICCDKCSVWAHIDCMGID | 1.47
HDDGYMICCDKCSVWVHIDCMGID | 2.82
HDDGYMICCDKCSVWCHIDCMGID | 2.4

Variant | protein stability index
HDPGYMICCDKCSVWQHIDCMGID | 2.65
HDDGYMIYCDKCSVWQHIDCMGID | 2.12
HDDGYMIRCDKCSVWQHIDCMGID | 2.51
HDDGYMIMCDKCSVWQHIDCMGID | 1.68
HDDGYMICCDKCSLWQHIDCMGID | 1.78
HDDGYMICCDKCSCWQHIDCMGID | 2.57
HDDGYMICCDKCSFWQHIDCMGID | 1.86
HDDGYMICCDTCSVWQHIDCMGID | 1.81
HDDGYMICCDVCSVWQHIDCMGID | 1.5
HDDGYMICCDACSVWQHIDCMGID | 1.82
HDDGYMICCDKCSVWQHMDCMGID | 3.14
HDDGYMICCDKCSVWQHPDCMGID | 2.94
HDDGYMICCDKCSVWQHLDCMGID | 2.28
HDDGYMICCDKCSVWQHTDCMGID | 2.44
HDDGYMICCDKCSVWQHIDCMPID | 2.39
HDDGYMICCDKCSVWQHIDCMTID | 2.19
HDDSYMICCDKCSVWQHIDCMGID | 2.38
HDDKYMICCDKCSVWQHIDCMGID | 2.16
HDDGYMICCDKCSVWQFIDCMGID | 1.65
HDDGYMICCDKCSVWQLIDCMGID | 1.98
HDDGYMICCDKCSVWQNIDCMGID | 2.32
HDDGYMICCDKCSVWQQIDCMGID | 2.48
HDDGYMICCDKCSVWQTIDCMGID | 1.64

Variants of: B2
Assay: as above
Details: c terminus: a fixed tail appended

Variant | protein stability index
FAPQTGARPSETFARFYKSQESAL | 2.92
FAPQTGARPSETFARFMKSQESAL | 3.12
